Assay results as given in US20120009162A1 (published 2012).

Target: T1, Aurora-A kinase (Aur-A) peptide on HLA-A*02:01 (human)
T1 peptide: YLILEYAPL
Assay: multimer staining

binding result: recognises
B1: TCR of the Aur-A-specific CTL clone AUR-1 (SEQ ID NOs 1 and 2) (TCR, V domains shown)
Valpha: AQSVAQPEDQVNVAEGNPLTVKCTYSVSGNPYLFWYVQYPNRGLQFLLKYITGDNLVKGSYGFEAEFNKSQTSFHLKKPSALVSDSALYFCAVRDSNSNDYKLSFGAGTTVTVRA
Vbeta: DAGITQSPRHKVTETGTPVTLRCHQTENHRYMYWYRQDPGHGLRLIHYSYGVKDTDKGEVSDGYSVSRSKTEDFLLTLESATSSQTSVYFCAISESSFAQPMNTEAFFGQGTRLTVV
